Test results from patent US20260078171A1.

Legend:
[1] = biological target: WIV1 (bat coronavirus WIV1)
[2] = biological target: CS24 (SARS-related coronavirus CS24)
[3] = biological target: LYRa11 (bat coronavirus LYRa11)
[4] = biological target: Rs4231 (bat coronavirus Rs4231)
[5] = biological target: GD-Pangolin (GD-Pangolin coronavirus)
[6] = biological target: SHC014 (bat coronavirus Rs SHC014)
[7] = biological target: Civet 007-2004 (civet SARS-related coronavirus 007-2004)
[8] = biological target: A021 (SARS-related coronavirus A021)
[9] = biological target: Frankfurt 1 (SARS-CoV isolate Frankfurt 1)
[10] = biological target: RaTG13 (bat coronavirus RaTG13)

VYD224 (antibody), sequence (VH): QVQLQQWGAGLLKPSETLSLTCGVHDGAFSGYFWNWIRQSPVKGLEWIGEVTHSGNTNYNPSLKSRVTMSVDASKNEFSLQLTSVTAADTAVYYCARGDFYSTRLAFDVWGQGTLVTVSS
VYD224 (antibody), sequence (VL): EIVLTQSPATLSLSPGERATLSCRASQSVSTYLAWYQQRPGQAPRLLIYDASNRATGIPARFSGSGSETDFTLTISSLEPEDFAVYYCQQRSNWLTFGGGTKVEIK
ADI-58125 (antibody), sequence (VH): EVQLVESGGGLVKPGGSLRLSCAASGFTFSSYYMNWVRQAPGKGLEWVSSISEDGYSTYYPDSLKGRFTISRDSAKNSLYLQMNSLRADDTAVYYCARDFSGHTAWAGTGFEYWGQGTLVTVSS
ADI-58125 (antibody), sequence (VL): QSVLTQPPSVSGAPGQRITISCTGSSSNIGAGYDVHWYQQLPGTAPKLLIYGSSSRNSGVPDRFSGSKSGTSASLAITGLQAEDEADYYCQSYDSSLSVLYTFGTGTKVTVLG
VYD222 (antibody), sequence (VH): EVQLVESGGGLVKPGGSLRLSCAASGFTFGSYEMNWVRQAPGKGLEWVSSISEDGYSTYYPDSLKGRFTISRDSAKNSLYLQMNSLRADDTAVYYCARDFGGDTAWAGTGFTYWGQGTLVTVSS
VYD222 (antibody), sequence (VL): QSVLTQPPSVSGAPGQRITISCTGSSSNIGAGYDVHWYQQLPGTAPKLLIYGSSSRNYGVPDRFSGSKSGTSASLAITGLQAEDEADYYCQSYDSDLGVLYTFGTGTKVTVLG

Substance | KD App [1] | KD App [2] | KD App [3] | KD App [4] | KD App [5] | KD App [6] | KD App (SARS-CoV-2 (SARS-CoV-2)) | KD App [7] | KD App (SARS-CoV-1 (SARS-CoV)) | KD App [8] | KD App [9] | KD App [10]
ADI-58125 (antibody) | 1.32 nM | 0.79 nM | 0.96 nM | 1.53 nM | 1.03 nM | 2.72 nM | 3.2 nM | 0.57 nM | 1.02 nM | 1.07 nM | 1.83 nM | 
VYD222 (antibody) | 0.97 nM | 0.45 nM | 0.67 nM | 0.49 nM | 0.15 nM | 0.74 nM | 0.54 nM | 0.23 nM | 0.44 nM | 0.24 nM | 0.9 nM | 
VYD224 (antibody) | 0.33 nM | 15.9 nM | 0.32 nM | 10.8 nM | 1.63 nM | 12.3 nM | 1.68 nM | 9.13 nM | 15.6 nM | 13.5 nM | 0.93 nM | 0.87 nM
